In patent US20150203573A1 (MEDICAL AND BIOLOGICAL LABORATORIES, published 2015):
Numbering of substitutions follows the chain as printed.

T1: mutant MK recombinant protein MK-K79Q (human, UniProt P21741 23-143, K79Q)
T1 construct: range 23-143; Made from MKver10-pQCxmhIPG, secreted from 293T cells; not shown: linker and tag from vector pQCxmhIPG
T1 sequence (looked up): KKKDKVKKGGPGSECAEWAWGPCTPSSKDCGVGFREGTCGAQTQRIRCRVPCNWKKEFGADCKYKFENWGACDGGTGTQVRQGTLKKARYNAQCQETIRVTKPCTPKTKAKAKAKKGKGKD

T2: mutant MK recombinant protein MK-R81Q (human, UniProt P21741 23-143, R81Q)
T2 construct: range 23-143; Made from MKver10-pQCxmhIPG, secreted from 293T cells; not shown: linker and tag from vector pQCxmhIPG
T2 sequence (looked up): T1 sequence (looked up) with Q79K, R81Q

T3: mutant MK recombinant protein MK-K102Q (human, UniProt P21741 23-143, K102Q)
T3 construct: range 23-143; Made from MKver10-pQCxmhIPG, secreted from 293T cells; not shown: linker and tag from vector pQCxmhIPG
T3 sequence (looked up): T1 sequence (looked up) with Q79K, K102Q

T4: mutant MK recombinant protein MK-W69A (human, UniProt P21741 23-143, W69A)
T4 construct: range 23-143; Made from MKver10-pQCxmhIPG, secreted from 293T cells; not shown: linker and tag from vector pQCxmhIPG
T4 sequence (looked up): T1 sequence (looked up) with W69A, Q79K

T5: full length purified peptide of pleiotrophin (PEPTIDE INSTITUTE, INC.: 4335-v) (UniProt P21246 33-168, limits assumed)
T5 construct: mature; Bought product; also called PTN
T5 sequence (looked up): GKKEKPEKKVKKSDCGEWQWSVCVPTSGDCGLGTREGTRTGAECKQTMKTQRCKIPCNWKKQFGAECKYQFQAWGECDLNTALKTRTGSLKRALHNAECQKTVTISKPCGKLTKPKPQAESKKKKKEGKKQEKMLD

B1: hFB54-matu024 affinity-improved antibody (IgG) (antibody, V domains shown)
VH: EVQLVESGGGLVKPGGYLRLSCAASGFTFSSYAMSWVRQAPGKGLDWVATISSGGSYTYYPDSVKGRFTISRDNAKNSLYLQMNSLTDDDTAVYFCARHNYRYGEYYYAMDYWGQGTLVTVSS
VL: ETTVTQSPSSLSASVGDRVTIRCITSIDIDDEMNWYQQKSGKGPKLLISEGNTLRPGVPSRFSSSGYGTDFTLTISSLQPEDFATYYCLQSDNLPYTFGQGTKLEIK
B2: hFB54-matu072 affinity-improved antibody (IgG) (antibody, V domains shown)
VH: B1 VH with S63N, G104D, Y108H
VL: B1 VL with S12F, R18K, S40P
B3: hFB54-matu039 affinity-improved antibody (IgG) (antibody, V domains shown)
VH: B1 VH with Q3R, G66E, G104D, A109G
VL: B1 VL with I24K, S40P, E105G
B4: hFB54-matu014 affinity-improved antibody (IgG) (antibody, V domains shown)
VH: B1 VH with A40T, A75V, G104D
VL: B1 VL with S26N, S40P, Q100R
B5: humanized FB54 antibody hFB54 (FB54-rHa/FB54-rKc) (antibody, human IgG1, V domains shown)
VH: B1 VH with G104D
VL: B1 VL with I27T, S40P
B6: hFB54-matu054 affinity-improved antibody (IgG) (antibody, V domains shown)
VH: B1 VH with A75T, S78T, G104D
VL: B1 VL with D30E, S40P
B7: hFB54-matu020 affinity-improved antibody (IgG) (antibody, V domains shown)
VH: B1 VH with L18Q, S85N, G104D, Y108H
VL: B1 VL with S40P
B8: hFB54-matu062 affinity-improved antibody (IgG) (antibody, V domains shown)
VH: B1 VH with K76E, S78T, D88N, G104D
VL: B1 VL with S14F, D17G, T20A, S26N, S40P, L89M
B9: anti-human midkine mouse monoclonal antibody FB54 (antibody, V domains shown)
VH: EVMLVESGGGLVKPGGSLKLSCAASGFTFSSYAMSWVRQTPEKRLEWVATISSGGSYTYYPDSVKGRFTISRDNAKNTLYLQMSSLRSEDTAMYFCARHNYRYDEYYYAMDYWGQGTSVTVSS
VL: ETTVTQSPTSLSMAIGEKVTIRCITSTDIDDEMNWYQQKPGEPPKLLISEGNTLRPGVPSRFSSSGYGTDFVFTIENMLSEDVADYYCLQSDNLPYTFGGGTKLEIK
notes: Mouse hybridoma IgG; variable genes were amplified with mouse IgG1 CH1 and kappa constant primers; also called mFB54; mouse FB54 antibody
B10: mFB54-matu002 affinity-improved antibody (IgG) (antibody, V domains shown)
VH: B9 VH
VL: B9 VL with I24T, T27I, K39M
B11: mFB54-matu089 affinity-improved antibody (IgG) (antibody, V domains shown)
VH: B9 VH with K13E, A23T, A24V, Q115H
VL: B9 VL with T27I, M78V

Columns and labels:
[1] = target: AP-MK, recombinant protein having alkaline phosphatase (AP) fused to the N-terminal of aa23-121 of MK (human) (UniProt P21741); test: AP-MK binding inhibition assay on TNB1 cells; antibody 10 ug/mL
Target sequence in this assay (P21741 23-143, form in doubt): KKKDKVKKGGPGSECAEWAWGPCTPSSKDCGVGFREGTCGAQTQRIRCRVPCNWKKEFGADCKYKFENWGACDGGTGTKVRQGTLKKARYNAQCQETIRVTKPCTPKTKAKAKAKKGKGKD

[2] = target: AP-MK, recombinant protein having alkaline phosphatase (AP) fused to the N-terminal of aa23-121 of MK (human) (UniProt P21741); test: AP-MK binding inhibition assay on TNB1 cells; AP-MK 0.6 U/ml, antibody 90 ug/mL
[3] = target: T1, mutant MK recombinant protein MK-K79Q; test: ELISA, plates coated with wild type or mutant MK, antibody serially diluted from 5 ug/mL
Method: (§1) Hybridomas producing anti-MK antibodies were selected by enzyme-linked immunosorbent assay (ELISA). The assay used the aforementioned recombinant human MK (MKver10) which had been dispensed in a 96-well ELISA plate (nunc) in an amount of 0.5 μg/mL (50 μL/well) and left to stand for 2 hours at room temperature or overnight at […] for adsorption. After removal of the resulting solution, 1% BSA (Nacalai: 01863-35)-5% Sucrose (WAKO)-PBS was added in an amount of 150 μL/well, and the system was allowed to stand for 2 hours at room temperature to block the remaining active groups. After standing of the system, the resulting solution was removed, and the hybridoma culture supernatant (50 μL/well) was dispensed as a primary antibody, whereafter the system was allowed to stand for 1 hour. After the plate was washed with 0.05% Tween 20-PBS, HRP-labeled goat anti-mouse IgG (MBL: 330) diluted 1:10000 was added as a secondary antibody in an amount of 50 μL/well, and the system was allowed to stand for 1 hour at room temperature. After the plate was washed with 0.05% Tween 20-PBS, a color developing solution (5 mM sodium citrate, 0.8 mM 3,3′,5,5′-tetramethylbenzidine-2HCl, 10% N,N-dimethylformamide, 0.625% polyethylene glycol 4000, 5 mM citric acid monohydrate, 5 mM H₂O₂) was added in an amount of 50 μL/well, and the system was allowed to stand for 20 minutes at room temperature to develop a color. 1M phosphoric acid was added in an amount of 50 μL/well to terminate color development, and then the absorbance at 450 nm was measured using a plate reader (Thermo Fisher Scientific).
(§2) The reactivities of the resulting antibodies with the mutant MKs were confirmed by the same enzyme-linked immunosorbent assay (ELISA) as described above. The assays used plates having wild type human MK (MKver10) or the above-mentioned mutant MK (MK-W69A, MK-K79Q, MK-R81Q and MK-K102Q) adsorbed thereto. The anti-MK antibody at a maximum concentration of 5 μg/mL was serially diluted with PBS, and used as a primary antibody. As examples of the antibodies recognizing the N-terminal side or the C-terminal side of midkine, but showing no neutralizing activity, BF106 and FB74 were also evaluated similarly.

[4] = target: T2, mutant MK recombinant protein MK-R81Q; test: as above
Method: as §1, §2

[5] = target: T3, mutant MK recombinant protein MK-K102Q; test: as above
Method: as §1, §2

[6] = target: T4, mutant MK recombinant protein MK-W69A; test: as above
Method: as §1, §2

[7] = target: T5, full length purified peptide of …; test: ELISA on full length purified peptide of pleiotrophin

Binder	relative AP activity (% of wells with AP-MK alone) [1]	further results
B1	22.7%	
B2	33%	
B3	30.1%	
B4	25.6%	
B5	81.8%	
B6	33.5%	
B7	26.8%	
B8	28.3%	
B9		relative AP activity (% of wells with AP-MK alone) [2]: 29.5%; binding result [3]: binds; binding result [4]: binds; binding result [5]: binds; binding result [6]: binds; binding result [7]: no binding
B10	18.9%	
B11	20%	
